# Laboratory results: publication PMC5182059
# Target: myristoylated Gαi1 harboring a hexahistidine tag in the helical domain (rat) (UniProt P10824)
# Sequence of UniProt P10824 (P10824 whole entry, the tested form may be a part): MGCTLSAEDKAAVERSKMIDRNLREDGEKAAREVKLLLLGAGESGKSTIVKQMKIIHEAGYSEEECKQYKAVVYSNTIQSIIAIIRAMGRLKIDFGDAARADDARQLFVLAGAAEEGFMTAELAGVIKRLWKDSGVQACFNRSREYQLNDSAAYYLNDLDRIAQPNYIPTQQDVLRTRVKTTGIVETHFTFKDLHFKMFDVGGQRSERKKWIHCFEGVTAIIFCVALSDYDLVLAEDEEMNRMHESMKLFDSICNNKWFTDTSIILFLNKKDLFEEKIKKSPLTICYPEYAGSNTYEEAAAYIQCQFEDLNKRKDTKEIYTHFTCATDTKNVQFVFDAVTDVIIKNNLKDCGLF
Binder,"v1: initial velocity of GDP to GTPγS exchange at Gαi1•GDP (2 μM) on adding GTPγS (10 μM) and Ric-8A (2 μM), tryptophan fluorescence, 25°C","v2: initial rate of GTPγS binding to pre-formed Gαi1:Ric-8A (2 μM each, incubated 5 min before 10 μM GTPγS), with release of Ric-8A, tryptophan fluorescence, 25°C"
Ric-8A (1-491) G457A (domain or fragment) MEPRAVADALETGEEDAVTEALRSFNREHSQSFTFDDAQQEDRKRLAKLLVSVLEQGLSPKHRVTWLQTIRILSRDRSCLDSFASRQSLHALACYADIAISEEPIPQPPDMDVLLESLKCLCNLVLSSPTAQMLAAEARLVVRLAERVGLYRKRSYPHEVQFFDLRLLFLLTALRTDVRQQLFQELHGVRLLTDALELTLGVAPKENPLVILPAQETERAMEILKVLFNITYDSVKREVDEEDAALYRYLGTLLRHCVMADAAGDRTEEFHGHTVNLLGNLPLKCLDVLLALELHEGSLEFMGVNMDVINALLAFLEKRLHQTHRLKECVAPVLSVLTECARMHRPARKFLKAQVLPPLRDVRTRPEVGDLLRNKLVRLMTHLDTDVKRVAAEFLFVLCSESVPRFIKYTGYGNAAGLLAARGLMAGGRPEGQYSEDEDTDTEEYREAKASINPVTARVEEKPPNPMEGMTEEQKEHEAMKLVNMFDKLSR,3.47 µM/min,6.02 µM/min
Ric-8A (1-491) P463A (domain or fragment) MEPRAVADALETGEEDAVTEALRSFNREHSQSFTFDDAQQEDRKRLAKLLVSVLEQGLSPKHRVTWLQTIRILSRDRSCLDSFASRQSLHALACYADIAISEEPIPQPPDMDVLLESLKCLCNLVLSSPTAQMLAAEARLVVRLAERVGLYRKRSYPHEVQFFDLRLLFLLTALRTDVRQQLFQELHGVRLLTDALELTLGVAPKENPLVILPAQETERAMEILKVLFNITYDSVKREVDEEDAALYRYLGTLLRHCVMADAAGDRTEEFHGHTVNLLGNLPLKCLDVLLALELHEGSLEFMGVNMDVINALLAFLEKRLHQTHRLKECVAPVLSVLTECARMHRPARKFLKAQVLPPLRDVRTRPEVGDLLRNKLVRLMTHLDTDVKRVAAEFLFVLCSESVPRFIKYTGYGNAAGLLAARGLMAGGRPEGQYSEDEDTDTEEYREAKASINPVTGRVEEKAPNPMEGMTEEQKEHEAMKLVNMFDKLSR,2.9 µM/min,4.78 µM/min
Ric-8A (1-491) N465A (domain or fragment) MEPRAVADALETGEEDAVTEALRSFNREHSQSFTFDDAQQEDRKRLAKLLVSVLEQGLSPKHRVTWLQTIRILSRDRSCLDSFASRQSLHALACYADIAISEEPIPQPPDMDVLLESLKCLCNLVLSSPTAQMLAAEARLVVRLAERVGLYRKRSYPHEVQFFDLRLLFLLTALRTDVRQQLFQELHGVRLLTDALELTLGVAPKENPLVILPAQETERAMEILKVLFNITYDSVKREVDEEDAALYRYLGTLLRHCVMADAAGDRTEEFHGHTVNLLGNLPLKCLDVLLALELHEGSLEFMGVNMDVINALLAFLEKRLHQTHRLKECVAPVLSVLTECARMHRPARKFLKAQVLPPLRDVRTRPEVGDLLRNKLVRLMTHLDTDVKRVAAEFLFVLCSESVPRFIKYTGYGNAAGLLAARGLMAGGRPEGQYSEDEDTDTEEYREAKASINPVTGRVEEKPPAPMEGMTEEQKEHEAMKLVNMFDKLSR,2.25 µM/min,4.56 µM/min
"Ric-8A (1-491), rat (Resistance to Inhibitors of Cholinesterase 8A) (domain or fragment) MEPRAVADALETGEEDAVTEALRSFNREHSQSFTFDDAQQEDRKRLAKLLVSVLEQGLSPKHRVTWLQTIRILSRDRSCLDSFASRQSLHALACYADIAISEEPIPQPPDMDVLLESLKCLCNLVLSSPTAQMLAAEARLVVRLAERVGLYRKRSYPHEVQFFDLRLLFLLTALRTDVRQQLFQELHGVRLLTDALELTLGVAPKENPLVILPAQETERAMEILKVLFNITYDSVKREVDEEDAALYRYLGTLLRHCVMADAAGDRTEEFHGHTVNLLGNLPLKCLDVLLALELHEGSLEFMGVNMDVINALLAFLEKRLHQTHRLKECVAPVLSVLTECARMHRPARKFLKAQVLPPLRDVRTRPEVGDLLRNKLVRLMTHLDTDVKRVAAEFLFVLCSESVPRFIKYTGYGNAAGLLAARGLMAGGRPEGQYSEDEDTDTEEYREAKASINPVTGRVEEKPPNPMEGMTEEQKEHEAMKLVNMFDKLSR",3.84 µM/min,4.66 µM/min
Ric-8A (1-491) R458A (domain or fragment) MEPRAVADALETGEEDAVTEALRSFNREHSQSFTFDDAQQEDRKRLAKLLVSVLEQGLSPKHRVTWLQTIRILSRDRSCLDSFASRQSLHALACYADIAISEEPIPQPPDMDVLLESLKCLCNLVLSSPTAQMLAAEARLVVRLAERVGLYRKRSYPHEVQFFDLRLLFLLTALRTDVRQQLFQELHGVRLLTDALELTLGVAPKENPLVILPAQETERAMEILKVLFNITYDSVKREVDEEDAALYRYLGTLLRHCVMADAAGDRTEEFHGHTVNLLGNLPLKCLDVLLALELHEGSLEFMGVNMDVINALLAFLEKRLHQTHRLKECVAPVLSVLTECARMHRPARKFLKAQVLPPLRDVRTRPEVGDLLRNKLVRLMTHLDTDVKRVAAEFLFVLCSESVPRFIKYTGYGNAAGLLAARGLMAGGRPEGQYSEDEDTDTEEYREAKASINPVTGAVEEKPPNPMEGMTEEQKEHEAMKLVNMFDKLSR,0.63 µM/min,0.37 µM/min
Ric-8A (1-491) K462A (domain or fragment) MEPRAVADALETGEEDAVTEALRSFNREHSQSFTFDDAQQEDRKRLAKLLVSVLEQGLSPKHRVTWLQTIRILSRDRSCLDSFASRQSLHALACYADIAISEEPIPQPPDMDVLLESLKCLCNLVLSSPTAQMLAAEARLVVRLAERVGLYRKRSYPHEVQFFDLRLLFLLTALRTDVRQQLFQELHGVRLLTDALELTLGVAPKENPLVILPAQETERAMEILKVLFNITYDSVKREVDEEDAALYRYLGTLLRHCVMADAAGDRTEEFHGHTVNLLGNLPLKCLDVLLALELHEGSLEFMGVNMDVINALLAFLEKRLHQTHRLKECVAPVLSVLTECARMHRPARKFLKAQVLPPLRDVRTRPEVGDLLRNKLVRLMTHLDTDVKRVAAEFLFVLCSESVPRFIKYTGYGNAAGLLAARGLMAGGRPEGQYSEDEDTDTEEYREAKASINPVTGRVEEAPPNPMEGMTEEQKEHEAMKLVNMFDKLSR,4.46 µM/min,5.15 µM/min
Ric-8A (1-491) E460A (domain or fragment) MEPRAVADALETGEEDAVTEALRSFNREHSQSFTFDDAQQEDRKRLAKLLVSVLEQGLSPKHRVTWLQTIRILSRDRSCLDSFASRQSLHALACYADIAISEEPIPQPPDMDVLLESLKCLCNLVLSSPTAQMLAAEARLVVRLAERVGLYRKRSYPHEVQFFDLRLLFLLTALRTDVRQQLFQELHGVRLLTDALELTLGVAPKENPLVILPAQETERAMEILKVLFNITYDSVKREVDEEDAALYRYLGTLLRHCVMADAAGDRTEEFHGHTVNLLGNLPLKCLDVLLALELHEGSLEFMGVNMDVINALLAFLEKRLHQTHRLKECVAPVLSVLTECARMHRPARKFLKAQVLPPLRDVRTRPEVGDLLRNKLVRLMTHLDTDVKRVAAEFLFVLCSESVPRFIKYTGYGNAAGLLAARGLMAGGRPEGQYSEDEDTDTEEYREAKASINPVTGRVAEKPPNPMEGMTEEQKEHEAMKLVNMFDKLSR,6.54 µM/min,5.36 µM/min
Ric-8A (1-491) V459A (domain or fragment) MEPRAVADALETGEEDAVTEALRSFNREHSQSFTFDDAQQEDRKRLAKLLVSVLEQGLSPKHRVTWLQTIRILSRDRSCLDSFASRQSLHALACYADIAISEEPIPQPPDMDVLLESLKCLCNLVLSSPTAQMLAAEARLVVRLAERVGLYRKRSYPHEVQFFDLRLLFLLTALRTDVRQQLFQELHGVRLLTDALELTLGVAPKENPLVILPAQETERAMEILKVLFNITYDSVKREVDEEDAALYRYLGTLLRHCVMADAAGDRTEEFHGHTVNLLGNLPLKCLDVLLALELHEGSLEFMGVNMDVINALLAFLEKRLHQTHRLKECVAPVLSVLTECARMHRPARKFLKAQVLPPLRDVRTRPEVGDLLRNKLVRLMTHLDTDVKRVAAEFLFVLCSESVPRFIKYTGYGNAAGLLAARGLMAGGRPEGQYSEDEDTDTEEYREAKASINPVTGRAEEKPPNPMEGMTEEQKEHEAMKLVNMFDKLSR,5.65 µM/min,6.85 µM/min
Ric-8A (1-491) P464A (domain or fragment) MEPRAVADALETGEEDAVTEALRSFNREHSQSFTFDDAQQEDRKRLAKLLVSVLEQGLSPKHRVTWLQTIRILSRDRSCLDSFASRQSLHALACYADIAISEEPIPQPPDMDVLLESLKCLCNLVLSSPTAQMLAAEARLVVRLAERVGLYRKRSYPHEVQFFDLRLLFLLTALRTDVRQQLFQELHGVRLLTDALELTLGVAPKENPLVILPAQETERAMEILKVLFNITYDSVKREVDEEDAALYRYLGTLLRHCVMADAAGDRTEEFHGHTVNLLGNLPLKCLDVLLALELHEGSLEFMGVNMDVINALLAFLEKRLHQTHRLKECVAPVLSVLTECARMHRPARKFLKAQVLPPLRDVRTRPEVGDLLRNKLVRLMTHLDTDVKRVAAEFLFVLCSESVPRFIKYTGYGNAAGLLAARGLMAGGRPEGQYSEDEDTDTEEYREAKASINPVTGRVEEKPANPMEGMTEEQKEHEAMKLVNMFDKLSR,2.83 µM/min,4.73 µM/min
Ric-8A (1-491) E461A (domain or fragment) MEPRAVADALETGEEDAVTEALRSFNREHSQSFTFDDAQQEDRKRLAKLLVSVLEQGLSPKHRVTWLQTIRILSRDRSCLDSFASRQSLHALACYADIAISEEPIPQPPDMDVLLESLKCLCNLVLSSPTAQMLAAEARLVVRLAERVGLYRKRSYPHEVQFFDLRLLFLLTALRTDVRQQLFQELHGVRLLTDALELTLGVAPKENPLVILPAQETERAMEILKVLFNITYDSVKREVDEEDAALYRYLGTLLRHCVMADAAGDRTEEFHGHTVNLLGNLPLKCLDVLLALELHEGSLEFMGVNMDVINALLAFLEKRLHQTHRLKECVAPVLSVLTECARMHRPARKFLKAQVLPPLRDVRTRPEVGDLLRNKLVRLMTHLDTDVKRVAAEFLFVLCSESVPRFIKYTGYGNAAGLLAARGLMAGGRPEGQYSEDEDTDTEEYREAKASINPVTGRVEAKPPNPMEGMTEEQKEHEAMKLVNMFDKLSR,7.45 µM/min,5.06 µM/min
